In article PMC2775144:

How the values were obtained:
[1] = biological target: PqsD (Pseudomonas aeruginosa); experiment: AUC
[2] = biological target: PqsD (Pseudomonas aeruginosa); experiment: SEC-MALS

For PqsD (enzyme), the stoichiometry N [1] was 2 and the stoichiometry N [2] was 2.
